assay: soluble on expression in E. coli; label from the status in PepcDB or PDB records

| Sequence | soluble on expression in E. coli |
| --- | --- |
| MGYTKAEILKALKGENVKFLRLQITDILGVVKNVEVPESQFEKALDGEIMFDGSSIEGFTRIEESDMLLRPDYNTFVILPDLVEDPKRGRVARLICDVYYPDGRPFEGDPRYVLKRQIERLKKLGFDNLYAGPEPEFFLFLRTPEGLPTTETHDRAGYFDLAPIDKGEEARRDMVNALVAMGFEIEAAHHEVAPGQHEIDFKYADALTTADNIATFKWVVKRIALNHGLHATFLPKPIRGINGSGMHTHLSLFKDGENAFYDPNAEYQLSQTALHFIAGLLEHAAGMVAVTNPLVNSYKRLTPGYEAPTNIAWSASNRSAMIRIPARRGVGTRAELRMPDPSCNPYLALAVMAAAGADGIERKLLPPPPIQRNIYQMTVRERRKHKIRELPGTLREALEALRKDPVIREALGEHVYTHFLQAKQMEWDDYRVTVHQWELDRYLATY | soluble |
| SALTIFSVKDPQNSLWHSTNAEEIQQQLNAKGVRFERWQADRDLGAAPTAETVIAAYQHAIDKLVAEKGYQSWDVISLRADNPQKEALREKFLNEHTHGEDEVRFFVEGAGLFCLHIGDEVFQVLCEKNDLISVPAHTPHWFDMGSEPNFTAIRIFDNPEGWIAQFTGDDIASAYPRLA | soluble |
| MADSPNRLNRAKIDSTTMKDPRVLNNLKLRELLLPKFTSLWEIQTEVTVDNRTILLTWMHLLCESFELDKSVFPLSVSILDRYLCKKQGTKKTLQKIGAACVLIGSKIRTVKPMTVSKLTYLSCDCFTNLELINQEKDILEALKWDTEAVLATDFLIPLCNALKIPEDLWPQLYEAASTTICKALIQPNIALLSPGLICAGGLLTTIETDNTNCRPWTCYLEDLSSILNFSTNTVRTVKDQVSEAFSLYDLEIL | soluble |
| MNRSIDSIIAKKVSHDVGILIFQYLNDIEPLIQQSLTAAKLKDFYGLKGKYSKGRFVCPFHHGADNPTSLSMNDNKRCFHCNACGKSGTYLEFIMYMQNISGRNSYNDAKIFAANHFTKLNLGFNSIADFEQKLKDKILERYRKTNSLRYTDYYDIWLLPERYFSSKEQSQVRQYQEEQQTKPSLEVSLSNSTNKPGFILESLDLEMTIRHLKAQNIIVNGITDYDEAVQVAKNSKLIKDFTKNADKLNSVDKLTDYMSKKYNIDIDTALKYGLIFFDKSSQHQLYYSDFFMLNNRVLFPVRDHETGIIVGYQCRRTDLSAPRHYKYLNITDYQDNLITNENGTTYRDFVPFKVGNFLFNLYELKGKCINTLWITEGIADAIKLSSMGYDAVSLGQANLTDYQIYLIDKYFGKDVTLNLFFDNDDNKIGQNKSIAAAYRLWQFGFRNIRIINTFKEMGKDITDCSVKLHDDDMLRLFINHWEKQAYSFAPASNEDLSALLKTGLYSESEILFIDPRDVERIISFGEMLNKYLDFKNMTYQQLKLLKKLCSFKEDEIKILLSLSTKDFLDVQNTNEQSCHKEQL | not soluble |
| MGSDKIHHHHHHMAVGKNNNKMGKKGGKKKAVDPFSRKEWYDIKAPNMFNTRQVGKTLINRTQGTKIASEGLKGRVFEVSLGDLNNSEADFRKFKLIAEDVQGKNVLTNFHAMSMTHDKLCSIVKKWHTLIEANTAVKTTDGYTLRVFVIAFTKKSVNQVKKTSYTKTSKIRKIRSEMIGCIEKEVTGCDLKEVVSKLIPDSIGKDIEKTCSKLYPLQEVYIRKVKIIKRPKVDLGRLHDLHGDSITVGADGEKVDRPDDYEPPVQQEV | not soluble |
| MGSDKIHHHHHHMTYQAREAGLKEVEQLVHEQAVYQYLQENNEGGQMDKDQMLFLHEAISGSDLTDAAAYRVVSATLYMILAHDTHEKIDEPGDVVKLTRKEQELTVLAGDFYSALYYRTLAELEMIPLLRALQSGVQETNTAKTNIYQLHVATDEEYLSQLTLTNAAIFAKFAKYFMKDETFIALGCQFFLLKRLQTELATYKEIGASRLKRAFDHGYFAKEAVSNFESWLVAIIRDVKSEVERLKTEAEPLSNLLEKRIIEVIND | not soluble |
| MQFLHILLLSILSLIFISSVQAVPSDQDIEALMGLQDQVNAFLGESNMSPEAKKKIEDMMAKKQAAIENSLGRK | soluble |
| MGSDKIHHHHHHMAPDLASLQRISGDSAIDQWLQVPGSWVEEPNERRGGASGVQRVYTGDGRLLYRKQQTGHVYRDWQRPFGYPTAMRERDALRAFESLGIRVPRLVYSGCRKVDGQWQALLVTEALEGFSSLDECYARGDQDRWGEAKHQRILQQIGATIARMNLAHWQHGCLYPKHIFVRVEGEAIEVALIDLEKSRRRLTVNKASQHDLKQLKRRSSWTGAQWQAFIYGYQTAFGSAIKGLQT | not soluble |
| MSLKLIGMLDSPYVRRVAISLKSLGLPFEHHSLSVFSTFEQFKAINPVVKAPTLVCEGGEVLMDSSLIIDYLETLAGPQRSLMPTALPQRLRELRLVGLALAACEKSVQIVYERNLRPAEKQHGPWLERVGGQLQAAYGELEQELQKQPLPRDGSLGQAGISLAVAWSFSQMMVADQFNPGQFPAVRGFAEYAEQLPVFLATPATEGHHHHHH | soluble |
| MKLSQQSQAIIESAIQKAINKYTCGCEQTIVTDIHIQPNQNSGELFIYDDEDEELSSVTIDEWTAYEGDDFCEDAERIFRTVLCRMKENGSFDKLTILKPYSFVLVDEDKETISELLLVDDDTLLVNDELLKGLDKELDDFLKDLLEKLEHHHHHH | soluble |
| MGSDKIHHHHHHMDLDRLQTFLKVVQYGSFQQVAAREYRSQRTVSKQMTQLENELKVTLFDRGQNRIQLTPQGRLFWASAQDIVNNYTTALTELRQFNVPTDQILRVGYFSAFEQRLLLPALYDLKQQHSELQLVVRQGSNEHLAQQVADGSLDLALSINYGRPAVTPESQLTAVPIYHNQMVIGVSRLNPLSRLSQLPPSALATLPILYYSPESSTFLLESFLASAPFIQDYEQIRRVSSAEQMHLLVALNQALAFYPAGLVPTKHDEQVAYLPITDAAQQGYDIVALLKSNRSRPLIAKLVQRLKANAKSDE | not soluble |
| MSSINITNVTVLDNPAPFVNPFQFEISYECLTSLKDDLEWKLIYVGSAEDETYDQVLESVLVGPVNVGNYRFVLQADSPDPLKIREEDIIGVTVLLLTCSYMDQEFIRVGYYVNNDYDDEQLREEPPTKVLIDKVQRNILTDKPRVTKFPINFHPENEQTLGDGPAPTEPFADSVVNGEAPVFLEQPQKLQEIEQFDDSDVNGEAIALLDQPQNLQET | soluble |
| MSTYQAATIVAAPNEFRVPFPPFVQISKVQFQREAGSRLLAASGWDGTCRVYEVGKLGDISEKLVFTHGKPLLTCTFAGYNKVAFGGVDHNVKLADIETGNGTQLGSHALAVRCMEFNPMSSLIVSGGWDSSVKLWDARSYGNGAIESVNVSSSVYAMDVLKHTILVGTKDRKIFMYDSRKLREPLQVRDSPLKYQTRAVQFFPTGEAFVVSSIEGRVAVEYVDQSGEEMMKRKYAFKCHREKDTDGTELIHPVHTVAFHPKYGTFATGGADGIVNIWDPFNRKRIIQLHKFETSISSLSFNEDGSQLAIATSYQYEKEIDPSPLPNNSITIRHITDPESRPK | not soluble |
| MAHHHHHHMWGFEAYAEGLSATLNIHGAPLTGVAPQAGESAPLAPPRCLWKKNRNNYLFDAQGKLLSAAEAHSPTIWRTHHAFSGRCALVNPTAPATGGAAAQSFGAPGWAEQAWTAYQSWSVGFRLSSTTTDEPHILLSVAPAYFPNLVSATGEIRKADAATLASLPCAPSAEEEVIYNKRMLETPLIWEEPYALSVECTTHGVFLWSDHWGIFGRKIADRCLEVRQGEVRQSGIATLPSPGPSPSSAAADEELALVAYDAALRLRWSAAGPGSRSSTDGGSARAVAPTLSVELKTGGDAAAGGAAPTCEEKVGEELWQHLVDLPLSLDEVACKAAFRPYVTLMEGGDAVELL | not soluble |
| MAQRGRKPKPTALKILEGNPGKRPLNEDEPKPEKKAPKCPGWLDAEAKKEWRRMSKQLEAMGILTEIDMAAFAGYCQAYARWKEAEEFITKHGTIVKTPSGYWQQVPQVSIAQTYLKIMNRFCEQFGLTPSARSRIVTDNINDEEDPMELILYKGGSKSV | soluble |
| DMWVYCETQAGDLVDVSKEMLGKARELMNDYNAAYDEDERVVAVLIGAAASDHVEDVIAYGADLVVYHEDDRLDRFRHQPYTEIFCDMARAGGDLAADGREETEWKDYHEPRYTVFPATNNGRDLSALVQGELDSGLASDCSGLYIESAMISNPAKVGTAGDKKEFERVLHMKRPDFSGFEYSTILCIDKPHRDFHPQGASVIPGSFEMPDPDYERDGEVVDYGMDIDDDWFTVEVEEYDRLSGGVD | not soluble |
| NRWGSPWAVKPEDKAKYDAIFDSLSPVNGFLSGDKVKPVLLNSKLPVDILGRVWELSDIDHDGMLDRDEFAVAMFLVYCALEKEPVPMSLPPALVPPSKRKTWLEI | soluble |
| MEEVVRFECRDSNLEIYVVQPGERLSIFGSCSFLCLAGNASINDYNLPAVSCESSNFMKISAPQRMDVPAILQVFKSGPSYKHARLKFRLKEVAPKNYEKIMEMIGTTEPSVFIFSKILDFAEETVSGVVSNFLIHSSIQKQIILPPHFFISRDDFIIYPQQQEAQLKSQMNRLNKLRNDGQRTTILPIGHKGAGKSNLMRSLVNRCLSNGYEHVYVLDCDIGQSEFTPCGCLSLTKVTSPILGKPHGHQRASFENSFFYGDITVRDINLYMDIFERLFNKFKVISEPGSVCIINSMGWVTDEGAEILDGITRVTDPELFVEIFRDQTEARYQFLNRAEHNIVEIFANNSIGVIGLPPQKRLPAALIRELTIVGYFSSRLPRPSLASFPKVAPYKLRFENVTICVPVDLLVEDSHVFSSINTQIMALCINNTDLKPRKLYGKDDLPSICVIDGNSPALQCIGFGIIRGVSVEERIIFVVTPVDLLKLEEPPVLVRGMRIQTPTMFYTADPYNRCPYVLNDLEQGNSDNTLDGLYQPSVNTTQFKRSRRF | not soluble |
| MGSDKIHHHHHHMRVLAIRHVEIEDLGMMEDIFREKNWSFDYLDTPKGEKLERPLEEYSLVVLLGGYMGAYEEEKYPFLKYEFQLIEEILKKEIPFLGICLGSQMLAKVLGASVYRGKNGEEIGWYFVEKVSDNKFFREFPDRLRVFQWHGDTFDLPRRATRVFTSEKYENQGFVYGKAVGLQFHIEVGARTMKRWIEAYKDELEKKKIDPRLLLETAEREEKVLKGLLRSLLERMVES | not soluble |
| MDVSEGGVTVSVPTASGGGEGAADDVFFNATQELNRDLTVATLAAFREREPRAASYLDAMTASGIRGVRAANAGWDVTMADVDADAVELATSNLARNGLDGEVVARDANSLLHDHDRVLDVVDIDPFGSPMPFADAAFANARNLVCVTATDTAPLCGAHFESGVRKYSATPRNTNYHAEMGLRILLGALARTAARYDVGVTPILSHVSDHYVRTYLELDHRATDANAAVEQVGHVYHCQQCLSRDHEYGLVAAPRAECPRCGGHQVLTAGPLWLGPAHEEAFAASVREQLTREMGEASQAFHLLQTIEGELHEPTHYDQHRLYSQWGEPAVGMAEFLDQLRDAGLRASRTHFGGTTFKTDGGLAEVEAAVLLEHHHHHH | soluble |
| MIKAIFTRQKNGQLSSVTLTGHAGSGKHGFDIVCASVSTLAINFVNSLEVLADCQALVDLNDVEGGYMAITIPPHDNKEEVQLLFESFLLGMTSLAKDSSKFVNTQVI | not soluble |
| PVNDEVEAVKNMHLIGQSQVAFREWNQKWVDLSLNSFADIENNLFEAEGYNHSFRFLKASHQIDQIESQITLIEEDIAAIRNALADLEKQESKNSGRVLHALDLFEELQHRVAENSEQYGQALDEIEKQLENIQSEFSQFVTLNSSGDPVEAAVILDNTENHILALSHIVDRVPALVTTLSTELPDQLQDLEAGYRKLIDANYHFVETDIEARFHLLYEAFKKNQENIRQLELDNAEYENGQAQEEINALYDIFTREIAAQKVVENLLATLPTYLQHMKENNTLLGEDIARLNKTYLLPETAASHVRRIQTELESFEAAIVEVTSNQEEPTQAYSVLEENLEDLQTQLKDIEDEQISVSERLTQIEKDDINARQKANVYVNRLHTIKRYMEKRNLPGIPQTFLKLFFTASNNTEDLMVELEQKMINIESVTRVLEIATNDMEALETETYNIVQYATLTEQLLQYSNRYRSFDERIQEAFNEALDIFEKEFDYHASFDKISQALEVAEPGVTNRFVTSYEKTRETI | not soluble |

Source: the DeepSol protein solubility set
